Assay results: PMC3167633
Changes are numbered by the printed parent chain.

B1: TPO3 wild-type HRE (GGCGAGGGG) (dsDNA)
DNA 1: TTCTCTGTGCTTGGCGAGGGGTTTACTGGAGCCCAATC
DNA 2: GATTGGGCTCCAGTAAACCCCTCGCCAAGCACAGAGAA
B2: HRE mutant 4 (GGCGAAGGG) (dsDNA)
DNA 1: B1 DNA 1 with G18A
DNA 2: B1 DNA 2 with C21T
B3: HRE mutant 6 (GGCGAGGCG) (dsDNA)
DNA 1: B1 DNA 1 with G20C
DNA 2: B1 DNA 2 with C19G
B4: HRE mutant 2 (GGCCAGGGG) (dsDNA)
DNA 1: B1 DNA 1 with G16C
DNA 2: B1 DNA 2 with C23G
B5: HRE mutant 5 (GGCGAGAGG) (dsDNA)
DNA 1: B1 DNA 1 with G19A
DNA 2: B1 DNA 2 with C20T
B6: HRE mutant 8 (GGCGAGGGA) (dsDNA)
DNA 1: B1 DNA 1 with G21A
DNA 2: B1 DNA 2 with C18T
B7: HRE mutant 7 (GGCGAGGAG) (dsDNA)
DNA 1: B1 DNA 1 with G20A
DNA 2: B1 DNA 2 with C19T
B8: HRE mutant 3 (GGCGCGGGG) (dsDNA)
DNA 1: B1 DNA 1 with A17C
DNA 2: B1 DNA 2 with T22G
B9: HRE mutant 1 (AGCGAGGGG) (dsDNA)
DNA 1: B1 DNA 1 with G13A
DNA 2: B1 DNA 2 with C26T

These binders were tested against T1, Haa1(DBD)-His6 (Saccharomyces cerevisiae, UniProt Q12753 1-123) (assay: SPR).
T1 sequence: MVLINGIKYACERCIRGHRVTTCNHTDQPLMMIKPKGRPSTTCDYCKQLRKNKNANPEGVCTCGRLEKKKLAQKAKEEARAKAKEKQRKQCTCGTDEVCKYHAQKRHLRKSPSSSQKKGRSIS
Work on B1 yielded a Kd of 2 ± 0.2 nM. Work on B2 yielded a Kd of 396 ± 51.1 nM. In the case of B3, the Kd is reported as 38.5 ± 4.5 nM. B4 gave a Kd of 4.3 ± 0.3 nM. B5 showed a Kd of 21.4 ± 6.1 nM. B6 showed a Kd of 119 ± 3.6 nM. B7 showed a Kd of 6780 ± 865 nM. In the case of B8, the Kd is reported as 13.6 ± 0.9 nM. Binder B9 has a Kd of 1.9 ± 0.3 nM.
